These results are taken from patent US20210221885A1.

The term IC50 denotes the concentration needed to halve the response being measured.

The assay has as its target Eu3+ cryptate labeled TIM3 (Cisbio kit, cat# 63ADK000CTLPEB) (human) (UniProt Q8TDQ0). The assay can be described thus: HTRF blocking assay (Cisbio kit), antibody added to a mixture of Tim3-EuK and Tag-Gal9; blocked ligand galectin-9; the unit is that of the concentration axis.

Chain of Eu3+ cryptate labeled TIM3 (Cisbio kit, cat# 63ADK000CTLPEB) (human) (Q8TDQ0 22-202 limits assumed): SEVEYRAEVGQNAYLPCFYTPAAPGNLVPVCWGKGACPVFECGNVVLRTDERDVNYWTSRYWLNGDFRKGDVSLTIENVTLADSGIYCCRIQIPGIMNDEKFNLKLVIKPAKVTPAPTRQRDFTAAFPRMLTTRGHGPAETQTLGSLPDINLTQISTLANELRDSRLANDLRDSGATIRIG

As for “F38-2E2 (ebioscience, cat#16-3109-85) (antibody)”, the IC50 stood at 5.74 nM.
